Measurements from patent publication US20250002610A1 (Genmab, published 2025).
Changes are numbered by the printed parent chain.

B1: BisG1-FAPα-FEAL/b12-FEAR (bispecific antibody, human IgG1, kappa)
heavy 1: EVQLLESGGGLVQPGGSPRLSCEASGFTFSSYALSWVRQAPGKGLEWVSAISGSGGGRYYADSVKGRFTISRDNSKNTLFLQMNSLRAEDTAVYYCAKEGYSSSGTYWDHWGQGTLVTVSSASTKGPSVFPLAPSSKSTSGGTAALGCLVKDYFPEPVTVSWNSGALTSGVHTFPAVLQSSGLYSLSSVVTVPSSSLGTQTYICNVNHKPSNTKVDKRVEPKSCDKTHTCPPCPAPEFEGGPSVFLFPPKPKDTLMISRTPEVTCVVVAVSHEDPEVKFNWYVDGVEVHNAKTKPREEQYNSTYRVVSVLTVLHQDWLNGKEYKCKVSNKALPAPIEKTISKAKGQPREPQVYTLPPSREEMTKNQVSLTCLVKGFYPSDIAVEWESNGQPENNYKTTPPVLDSDGSFLLYSKLTVDKSRWQQGNVFSCSVMHEALHNHYTQKSLSLSPG
light 1: AIQMTQSPSSVSASVGDRVTITCRASQGVSSWLAWYQQKPGRAPKLLIYVASTLQSGVPSRFSGSGSGTDFTLTINSLQPEDFATYYCQQANSFPPTFGQGTRLEMKRTVAAPSVFIFPPSDEQLKSGTASVVCLLNNFYPREAKVQWKVDNALQSGNSQESVTEQDSKDSTYSLSSTLTLSKADYEKHKVYACEVTHQGLSSPVTKSFNRGEC
heavy 2: QVQLVQSGAEVKKPGASVKVSCQASGYRFSNFVIHWVRQAPGQRFEWMGWINPYNGNKEFSAKFQDRVTFTADTSANTAYMELRSLRSADTAVYYCARVGPYSWDDSPQDNYYMDVWGKGTTVIVSSASTKGPSVFPLAPSSKSTSGGTAALGCLVKDYFPEPVTVSWNSGALTSGVHTFPAVLQSSGLYSLSSVVTVPSSSLGTQTYICNVNHKPSNTKVDKRVEPKSCDKTHTCPPCPAPEFEGGPSVFLFPPKPKDTLMISRTPEVTCVVVAVSHEDPEVKFNWYVDGVEVHNAKTKPREEQYNSTYRVVSVLTVLHQDWLNGKEYKCKVSNKALPAPIEKTISKAKGQPREPQVYTLPPSREEMTKNQVSLTCLVKGFYPSDIAVEWESNGQPENNYKTTPPVLDSDGSFFLYSRLTVDKSRWQQGNVFSCSVMHEALHNHYTQKSLSLSPG
light 2: EIVLTQSPGTLSLSPGERATFSCRSSHSIRSRRVAWYQHKPGQAPRLVIHGVSNRASGISDRFSGSGSGTDFTLTITRVEPEDFALYYCQVYGASSYTFGQGTKLERKRTVAAPSVFIFPPSDEQLKSGTASVVCLLNNFYPREAKVQWKVDNALQSGNSQESVTEQDSKDSTYSLSSTLTLSKADYEKHKVYACEVTHQGLSSPVTKSFNRGEC
notes: Fab-arm exchange of IgG1-FAPα-FEAL and IgG1-b12-FEAR
B2: IgG1-FAPα-FERL (antibody)
heavy: B1 heavy 1 with G240R, A269D
light: B1 light 1
notes: Bivalent monoclonal IgG1 kappa
B3: BisG1-b12-FERL/DR4-FERR (bispecific antibody, human IgG1, kappa, lambda)
heavy 1: B1 heavy 2 with G246R, A275D, F415L, R419K
light 1: B1 light 2
heavy 2: QVQLQESGPGLVKPSGTLSLTCAVSGGSISSYSWWSWIRQPPGKGLEWIGELYHSGSTNYNPSLKSRVTISVDKSKNQFSLKLRSVTAADTAVYYCVRGVATIDYWGQGTLVTVSSASTKGPSVFPLAPSSKSTSGGTAALGCLVKDYFPEPVTVSWNSGALTSGVHTFPAVLQSSGLYSLSSVVTVPSSSLGTQTYICNVNHKPSNTKVDKRVEPKSCDKTHTCPPCPAPEFERGPSVFLFPPKPKDTLMISRTPEVTCVVVDVSHEDPEVKFNWYVDGVEVHNAKTKPREEQYNSTYRVVSVLTVLHQDWLNGKEYKCKVSNKALPAPIEKTISKAKGQPREPQVYTLPPSREEMTKNQVSLTCLVKGFYPSDIAVEWESNGQPENNYKTTPPVLDSDGSFFLYSRLTVDKSRWQQGNVFSCSVMHEALHNHYTQKSLSLSPG
light 2: QSALTQPPSASGSPGQSVTISCTGTSSDVGGYNFVSWYQQDPGKAPKLLIYEVTKRPSGVPDRFSGSKSGNTASLTVSGLQAEDEADYYCSSYAGSNNVMFGGGTKLTVLGQPKAAPSVTLFPPSSEELQANKATLVCLISDFYPGAVTVAWKADSSPVKAGVETTTPSKQSNNKYAASSYLSLTPEQWKSHRSYSCQVTHEGSTVEKTVAPTECS
notes: Fab-arm exchange of IgG1-b12-FERL and IgG1-DR4-FERR; also called bsIgG1-ctrl-FERLxDR4-FERR
B4: IgG1-DR4-FERR (antibody, V domains shown)
VH: QVQLQESGPGLVKPSGTLSLTCAVSGGSISSYSWWSWIRQPPGKGLEWIGELYHSGSTNYNPSLKSRVTISVDKSKNQFSLKLRSVTAADTAVYYCVRGVATIDYWGQGTLVTVSS
VL: QSALTQPPSASGSPGQSVTISCTGTSSDVGGYNFVSWYQQDPGKAPKLLIYEVTKRPSGVPDRFSGSKSGNTASLTVSGLQAEDEADYYCSSYAGSNNVMFGGGTKLTVLG
notes: Bivalent monoclonal IgG1 lambda

Assays:
[1] = target: T1, human FAPα (Fibroblast activation protein alpha), cell surface expressed (human, UniProt Q12884 1-760); assay: flow cytometry, Expi293F cells expressing human FAPα, average ± SEM
T1 construct: Endogenous on human lung fibroblasts and CAFs
T1 sequence: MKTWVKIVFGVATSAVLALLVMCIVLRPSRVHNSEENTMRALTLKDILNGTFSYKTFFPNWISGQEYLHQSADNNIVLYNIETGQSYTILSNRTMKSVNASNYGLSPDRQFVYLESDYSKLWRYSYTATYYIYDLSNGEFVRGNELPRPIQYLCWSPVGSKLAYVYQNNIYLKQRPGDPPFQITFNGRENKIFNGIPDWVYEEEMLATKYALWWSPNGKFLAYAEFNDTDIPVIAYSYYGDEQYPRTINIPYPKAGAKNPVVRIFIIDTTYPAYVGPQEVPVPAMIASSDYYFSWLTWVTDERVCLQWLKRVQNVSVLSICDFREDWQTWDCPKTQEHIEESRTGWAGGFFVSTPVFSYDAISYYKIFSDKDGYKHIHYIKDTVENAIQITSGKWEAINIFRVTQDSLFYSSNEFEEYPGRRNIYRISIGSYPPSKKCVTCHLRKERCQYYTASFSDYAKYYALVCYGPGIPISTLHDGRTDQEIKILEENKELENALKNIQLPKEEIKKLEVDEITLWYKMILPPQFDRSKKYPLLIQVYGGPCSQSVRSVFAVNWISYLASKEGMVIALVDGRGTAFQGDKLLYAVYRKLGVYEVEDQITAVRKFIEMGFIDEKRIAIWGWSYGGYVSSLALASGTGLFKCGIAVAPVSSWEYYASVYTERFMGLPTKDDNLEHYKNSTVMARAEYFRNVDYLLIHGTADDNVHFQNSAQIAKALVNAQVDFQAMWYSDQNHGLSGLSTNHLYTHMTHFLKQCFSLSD
Method: (§1) Binding of BisG1-FAPα-FERL/DR4-FERR, BisG1-FAPα-FEAL/b12-FEAR and IgG1-FAPα-FERL to FAPα of species commonly used for nonclinical toxicology studies was assessed by flow cytometry using Expi293F cells transiently expressing FAPα from different animal species. IgG1-b12 was included as negative control.
(§2) Expi293F cells expressing recombinant FAPα from various species (human, cynomolgus monkey, dog, pig, rat or mouse) were seeded (20,000 cells/well) in 96-Well round bottom plates (Greiner Bio-one, Cat #650101). Antibody dilutions were prepared using FACS buffer, consisting of PBS (Capricorn Scientific, Cat #PBS-10XA, diluted to 1×PBS in distilled water)+1% BSA (Roche, Cat #10735086001)+0.02% Sodium Azide (Bio-World, Cat #41920044-3). Plates were centrifuged, supernatant was removed, and cells were resuspended in 100 μL of antibody dilutions (concentration range 30-0.00017 μg/mL with three-fold serial dilutions using FACS buffer) of BisG1-FAPα-FERL/DR4-FERR, BisG1-FAPα-FEAL/b12-FEAR, IgG1-FAPα-FERL and IgG1-b12 and incubated for 30 min at 4° C. […] After 30 min incubation at 4° C., cells were washed with FACS buffer and resuspended in FACS buffer supplemented with TO-PRO-3 Iodide viability marker (Invitrogen, Cat #T3605, diluted 1:4,000). Antibody binding to viable cells (gMFI of PE on TO-PRO-3 negative cells) was analyzed by flow cytometry on a FACS Celesta and FACS_Diva software (first two experiments) or iQue® 3 and FlowJo software (last experiment). gMFI was determined and visualized using GraphPad Prism. Binding curves were analyzed using nonlinear regression analysis. The concentration (pg/mL) at which 50% of the maximal effect was observed (EC₅₀) was derived from the fitted curves.

[2] = target: T2, cynomolgus monkey FAPα on Expi293F cells (cynomolgus monkey (Macaca fascicularis), UniProt Q12884 1-760 (human entry)); assay: flow cytometry, Expi293F cells expressing cynomolgus monkey FAPα, average ± SEM
T2 sequence: T1 sequence with S29P, V261F, E417D
Method: as §1, §2

[3] = target: T3, human DR4 (Death Receptor 4), cell surface expressed on human tumor cell lines (human, UniProt O00220 24-468); assay: flow cytometry, A549 cells, n = 3
T3 construct: also called TNFRSF10A; TRAIL-R1
T3 sequence: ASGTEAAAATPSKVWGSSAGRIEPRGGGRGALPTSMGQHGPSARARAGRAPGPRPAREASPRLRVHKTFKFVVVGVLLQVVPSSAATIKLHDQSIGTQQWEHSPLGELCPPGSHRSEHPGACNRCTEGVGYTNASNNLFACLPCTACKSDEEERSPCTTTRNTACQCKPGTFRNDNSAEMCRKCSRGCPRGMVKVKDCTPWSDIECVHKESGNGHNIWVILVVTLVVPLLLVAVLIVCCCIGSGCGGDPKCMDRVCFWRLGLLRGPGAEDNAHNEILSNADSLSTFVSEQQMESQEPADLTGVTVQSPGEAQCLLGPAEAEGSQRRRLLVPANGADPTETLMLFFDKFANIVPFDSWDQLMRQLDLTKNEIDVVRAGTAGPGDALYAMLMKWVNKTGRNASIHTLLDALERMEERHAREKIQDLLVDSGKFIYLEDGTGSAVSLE

[4] = target: T3, human DR4 (Death Receptor 4), cell …; assay: flow cytometry, HCT-116 cells, n = 2

Binder | EC50 [1] [µg/mL] | EC50 [2] [µg/mL] | EC50 [3] [µg/mL] | EC50 [4] [µg/mL]
B1 | 0.3 | 0.19 | – | –
B2 | 0.18 | 0.1 | – | –
B3 | – | – | 0.78 | 0.65
B4 | – | – | 0.21 | 0.16
